Substitutions are numbered along the chain they refer to.

In PMC12412624, “Engineered Cas12j‐8 is a Versatile Platform for Multiplexed Genome Modulation in Mammalian Cells” one finds binding signal data, which are given here for one sequence.

Data set [1] has as its system T1, dCas12j-8 D403R D403R;D369A;E567A;D658A (bacteriophage (metagenome)).
T1 sequence: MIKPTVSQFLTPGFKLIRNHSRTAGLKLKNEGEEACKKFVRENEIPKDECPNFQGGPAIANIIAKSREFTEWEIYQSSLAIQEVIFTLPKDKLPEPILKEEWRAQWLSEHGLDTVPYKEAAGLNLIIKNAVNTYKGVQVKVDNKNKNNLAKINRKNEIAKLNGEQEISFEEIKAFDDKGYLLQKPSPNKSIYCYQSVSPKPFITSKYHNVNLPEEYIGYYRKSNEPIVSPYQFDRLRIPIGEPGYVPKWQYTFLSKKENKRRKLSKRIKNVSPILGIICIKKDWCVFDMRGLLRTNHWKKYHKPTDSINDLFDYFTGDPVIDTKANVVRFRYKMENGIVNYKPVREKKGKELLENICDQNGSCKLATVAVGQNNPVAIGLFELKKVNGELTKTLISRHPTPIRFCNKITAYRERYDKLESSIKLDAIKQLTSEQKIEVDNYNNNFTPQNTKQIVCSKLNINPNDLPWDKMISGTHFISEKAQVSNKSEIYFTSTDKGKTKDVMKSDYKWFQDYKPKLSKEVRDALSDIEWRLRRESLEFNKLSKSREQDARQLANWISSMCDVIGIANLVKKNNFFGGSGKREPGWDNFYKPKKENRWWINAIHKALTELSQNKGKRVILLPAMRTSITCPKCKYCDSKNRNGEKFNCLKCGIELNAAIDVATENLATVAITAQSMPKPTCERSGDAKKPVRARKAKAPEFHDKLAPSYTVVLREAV
Conditions: HEK293T cells; panel 1c (compare within a panel only); scale: mean GFP / mean GFP of wild type, printed, no background subtraction.

Data set [2] concerns T2, dCas12j-8 D416R D416R;D369A;E567A;D658A (bacteriophage (metagenome)).
T2 sequence: T1 sequence with R403D, D416R
The following applies: HEK293T cells; panel 1c (compare within a panel only); scale: mean GFP / mean GFP of wild type, printed, no background subtraction.

For data set [3], the system named is T3, dCas12j-8 D512R D512R;D369A;E567A;D658A (bacteriophage (metagenome)).
T3 sequence: T1 sequence with R403D, D512R
Conditions: HEK293T cells; panel 1c (compare within a panel only); scale: mean GFP / mean GFP of wild type, printed, no background subtraction.

For data set [4], the system named is T4, dCas12j-8 E258R+D495R+E547R E258R;D495R;E547R;D369A;E567A;D658A (bacteriophage (metagenome)).
T4 sequence: T1 sequence with E258R, R403D, D495R, E547R
Conditions: HEK293T cells; panel 1e (compare within a panel only); scale: mean GFP / mean GFP of wild type, printed, no background subtraction.

For “CUUUCAAGACUAAUAGAUUGCUCCUUACGAGGAGACACUCCCUAUCAGUGAUAGAG / TTNACTCCCTATCAGTGATAGAG / CTCTATCACTGATAGGGAGTNAA [TetO]”, the binding signal in data set [1] turned out to be 0.365; in data set [2], 0.46; in data set [3], 1.07; in data set [4], 4.13.
